We go through 34 sequences from the supplement of paper PMC7877785.

The nature of this series: self-splicing fitness, log relative to wild type (ln ratio); higher = more splicing; Tetrahymena group I intron in knt gene, E. coli kanamycin selection, DiMSum; sequences stand for … in CUCUCU…GGAGGGAAAAGUUAUCAGGCAUGCACCUGGUAGCUAGUCUUUAAACCAAUAGAUUGCAUCGGUUUAAAAGGCAAGACCGUCAAAUUGCGGGAAAGGGGUCAACAGCCGUUCAGUACCAAGUCUCAGGGGAAACUUUGAGAUGGCCUUGCAAAGGGUAUGGUAAUAAGCUGACGGACAUGGUCCUAACCACGCAGCCAAGUCCUAAGUCAACAGAUCUUCUGUUGAUAUGGAUGCAGUUCACAGACUAAAUGUCGGUCGGGGAAGAUGUAUUCUUCUCAUAAGAUAUAGUCGGACCUCUCCUUAAUGGGAGCUAGCGGAUGAAGUGAUGCAACACUGGAGCCGCUGGGAACUAAUUUGUAUGCGAAAGUAUAUUGAUUAGUUUUGGAGUACUCGUGGUCG
An outline of the steps:
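DiMSum derived fitness as the error-weighted combination of fold changes across replicates, kanamycin versus no kanamycin, normalised to wild type. E. coli BL21(DE3) held the library, which randomised all eight P1ex-region intron nucleotides within the knt kanamycin-resistance gene on pET-22b(+). Six replicate transformations grew overnight at 37°C or 30°C on LB agar with or without 25 μg/mL kanamycin, also containing 100 μg/mL carbenicillin, 50 μM IPTG and 0.2% rhamnose, and pooled colonies were amplicon-sequenced on an Illumina HiSeq 2500.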

± gives the uncertainty stated by the source.

In the case of UUAAAGCAAUAUUACGAGAA, the “self-splicing fitness (ln)” value (30 °C) was -1.48 ± 0.096 and the “self-splicing fitness (ln)” value (37 °C) was -0.717 ± 0.12. As for GCUUAGCAAUAUUACGUAAA, the “self-splicing fitness (ln)” value is -0.47 ± 0.084 (30 °C) and 0.317 ± 0.1 (37 °C). Regarding GGAGAGCAAUAUUACGCAUA, the “self-splicing fitness (ln)” value (30 °C) was -3.12 ± 0.26 and the “self-splicing fitness (ln)” value (37 °C) was -2.73 ± 0.23. On to CGGCAGCAAUAUUACGCCAG, for which the “self-splicing fitness (ln)” value (30 °C) was -1.53 ± 0.21.

Consider CGCUAGCAAUAUUACGGUAU, for which the “self-splicing fitness (ln)” value was -3.03 ± 0.15 (30 °C) and -2.39 ± 0.19 (37 °C).

Consider GACUAGCAAUAUUACGUACC, for which the “self-splicing fitness (ln)” value is -1.65 ± 0.15 (30 °C) and -0.961 ± 0.14 (37 °C). Take CUCUAGCAAUAUUACGCCAC: for the setting “30 °C”, the “self-splicing fitness (ln)” value was -2.66 ± 0.28.

As for CAGUAGCAAUAUUACGACGU, the “self-splicing fitness (ln)” value was -1.15 ± 0.14 (30 °C) and -0.0577 ± 0.18 (37 °C). The matching figures for GAUCAGCAAUAUUACGUCGC: -1.11 ± 0.1 and 0.0313 ± 0.11. Take ACGUAGCAAUAUUACGUUCG: the “self-splicing fitness (ln)” value was -2.69 ± 0.12 (30 °C) and -0.757 ± 0.12 (37 °C).

As for GGUGAGCAAUAUUACGUAGC, the “self-splicing fitness (ln)” value by setting is: (30 °C) -2.64 ± 0.3; (37 °C) -1.27 ± 0.29.

Turning to AAUCAGCAAUAUUACGUUAC, the “self-splicing fitness (ln)” value reads like this: (30 °C) -2.78 ± 0.13; (37 °C) -1.08 ± 0.1.

GCUAAGCAAUAUUACGAAGG: the “self-splicing fitness (ln)” value (30 °C) was -1.85 ± 0.11 and the “self-splicing fitness (ln)” value (37 °C) was -0.743 ± 0.16. Take GACGAGCAAUAUUACGGCUU: the “self-splicing fitness (ln)” value was -1.43 ± 0.11 (30 °C) and -0.332 ± 0.14 (37 °C). On the same counts, the results for CCCGAGCAAUAUUACGAGCU are -3.75 ± 0.17 and -2.69 ± 0.21. For GACCAGCAAUAUUACGUUUA, the “self-splicing fitness (ln)” value is, setting by setting: (30 °C) -0.372 ± 0.051; (37 °C) -0.0736 ± 0.062.

Regarding CCGAAGCAAUAUUACGAAAU, the “self-splicing fitness (ln)” value was -4.57 ± 0.29 (30 °C) and -1.9 ± 0.2 (37 °C). On the same counts, the results for CGAGAGCAAUAUUACGUUUA are -3.35 ± 0.36 and -3.25 ± 0.47. Consider CCUAAGCAAUAUUACGUGGU, for which the “self-splicing fitness (ln)” value (30 °C) was -4.74 ± 0.32 and the “self-splicing fitness (ln)” value (37 °C) is -3.13 ± 0.25.

Take CUCCAGCAAUAUUACGGGAA: the “self-splicing fitness (ln)” value reads like this: (30 °C) -1.92 ± 0.086; (37 °C) -0.479 ± 0.093. With CACCAGCAAUAUUACGGUUA, the “self-splicing fitness (ln)” value was -0.251 ± 0.068 (30 °C) and -0.0422 ± 0.09 (37 °C).

Consider UUGUAGCAAUAUUACGUCUU, for which the “self-splicing fitness (ln)” value runs as follows: (30 °C) -0.945 ± 0.16; (37 °C) -0.491 ± 0.19.

On to GCGGAGCAAUAUUACGGCAU, for which the “self-splicing fitness (ln)” value runs as follows: (30 °C) -1.88 ± 0.12; (37 °C) -0.979 ± 0.13.

On to UUUUAGCAAUAUUACGUUGC, for which, under “30 °C”, the “self-splicing fitness (ln)” value is -2.8 ± 0.43. For ACGAAGCAAUAUUACGGCGC, the “self-splicing fitness (ln)” value runs as follows: (30 °C) -0.589 ± 0.086; (37 °C) -0.278 ± 0.12. CAUGAGCAAUAUUACGACUU: the “self-splicing fitness (ln)” value runs as follows: (30 °C) -3.95 ± 0.32; (37 °C) -3.81 ± 0.36. On the same counts, the results for ACGCAGCAAUAUUACGGGGA are -2.28 ± 0.091 and -2.14 ± 0.1.

Take CAUCAGCAAUAUUACGUUAC: the “self-splicing fitness (ln)” value (30 °C) is -4.12 ± 0.39 and the “self-splicing fitness (ln)” value (37 °C) is -1.92 ± 0.22. On the same counts, the results for UCGUAGCAAUAUUACGUUGA are -1.59 ± 0.16 and -0.942 ± 0.14. The matching figures for AAAAAGCAAUAUUACGGAUG: -2.17 ± 0.094 and -1.23 ± 0.095.

Consider CCUAAGCAAUAUUACGACCA, for which the “self-splicing fitness (ln)” value runs as follows: (30 °C) -3.19 ± 0.21; (37 °C) -1.46 ± 0.17. The matching figures for UCUGAGCAAUAUUACGGCCU: -3.3 ± 0.29 and -1.6 ± 0.3.

Regarding AGGCAGCAAUAUUACGUCGA, the “self-splicing fitness (ln)” value is -0.305 ± 0.043 (30 °C) and -0.0427 ± 0.055 (37 °C). On the same counts, the results for AACUAGCAAUAUUACGGUAU are -1.31 ± 0.072 and -0.479 ± 0.092.
